T1: human MuSK (human, UniProt O15146 24-495)
T1 construct: Recombinant protein coated on ELISA plates (R&D Systems cat. 10189-MK) or on the Biacore chip; also called human muscle-specific tyrosine protein kinase; full length human MuSK
T1 sequence: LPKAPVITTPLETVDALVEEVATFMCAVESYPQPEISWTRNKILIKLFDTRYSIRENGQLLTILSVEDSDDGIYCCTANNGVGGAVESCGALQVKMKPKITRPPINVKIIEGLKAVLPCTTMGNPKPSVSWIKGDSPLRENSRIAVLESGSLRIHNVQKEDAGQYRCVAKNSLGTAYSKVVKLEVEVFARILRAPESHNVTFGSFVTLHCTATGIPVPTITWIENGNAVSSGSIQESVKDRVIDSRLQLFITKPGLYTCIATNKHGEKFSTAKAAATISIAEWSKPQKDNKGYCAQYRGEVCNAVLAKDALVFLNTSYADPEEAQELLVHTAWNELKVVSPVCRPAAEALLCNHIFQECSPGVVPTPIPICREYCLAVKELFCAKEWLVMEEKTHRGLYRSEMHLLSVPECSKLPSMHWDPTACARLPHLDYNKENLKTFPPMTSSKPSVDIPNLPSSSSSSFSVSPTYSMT

T2: mouse MuSK (mouse, UniProt Q61006 22-494, limits assumed)
T2 construct: Coated on ELISA plates or on the Biacore chip; also called full length mouse MuSK; mouse MuSK (in house produced in HEK293 cells)
T2 sequence (looked up): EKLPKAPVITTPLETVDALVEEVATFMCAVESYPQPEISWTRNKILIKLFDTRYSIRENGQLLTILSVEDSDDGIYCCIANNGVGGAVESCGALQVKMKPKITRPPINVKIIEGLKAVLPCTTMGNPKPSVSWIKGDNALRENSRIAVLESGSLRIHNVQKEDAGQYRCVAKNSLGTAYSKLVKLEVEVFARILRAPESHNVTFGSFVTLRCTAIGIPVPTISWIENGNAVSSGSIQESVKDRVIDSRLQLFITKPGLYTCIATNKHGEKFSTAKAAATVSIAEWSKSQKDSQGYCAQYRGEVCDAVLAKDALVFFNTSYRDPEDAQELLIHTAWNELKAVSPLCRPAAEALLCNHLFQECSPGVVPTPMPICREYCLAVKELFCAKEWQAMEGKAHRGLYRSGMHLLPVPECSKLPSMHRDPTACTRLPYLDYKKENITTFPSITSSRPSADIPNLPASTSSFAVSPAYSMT

T3: mFz: Fz domain and C-terminal flanking sequence of mouse MuSK (D307 to T494) with C-terminal Avi- and … (mouse, UniProt Q61006 307-494, limits assumed, biotinylated in vitro using the BirA enzyme)
T3 construct: also called mouse Fz; not shown: Avi- and His6-tags
T3 sequence (looked up): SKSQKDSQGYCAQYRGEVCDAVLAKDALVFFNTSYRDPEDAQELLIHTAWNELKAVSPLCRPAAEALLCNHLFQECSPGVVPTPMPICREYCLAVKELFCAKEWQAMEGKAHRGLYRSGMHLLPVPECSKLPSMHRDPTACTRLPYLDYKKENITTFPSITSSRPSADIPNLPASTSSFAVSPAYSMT

T4: hECD: full-length extracellular region of human MuSK (E22 to T495) with C-terminal Avi- and His6-tags (human, UniProt O15146 22-495, biotinylated in vitro using the BirA enzyme)
T4 construct: also called human ECD; not shown: Avi- and His6-tags
T4 sequence: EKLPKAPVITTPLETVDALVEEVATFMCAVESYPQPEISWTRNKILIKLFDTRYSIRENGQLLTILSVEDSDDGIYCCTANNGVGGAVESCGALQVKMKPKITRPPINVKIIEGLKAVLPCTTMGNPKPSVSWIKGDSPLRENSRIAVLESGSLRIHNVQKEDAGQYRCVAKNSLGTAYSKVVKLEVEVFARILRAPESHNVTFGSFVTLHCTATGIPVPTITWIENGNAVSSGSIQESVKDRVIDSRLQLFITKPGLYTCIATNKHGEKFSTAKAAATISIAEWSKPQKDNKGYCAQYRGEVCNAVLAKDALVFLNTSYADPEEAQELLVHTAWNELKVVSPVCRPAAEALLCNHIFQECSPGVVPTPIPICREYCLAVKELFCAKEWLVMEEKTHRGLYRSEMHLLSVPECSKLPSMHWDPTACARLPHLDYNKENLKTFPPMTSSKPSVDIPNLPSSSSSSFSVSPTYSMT

T5: mECD: full-length extracellular region of mouse MuSK (E22 to T494) with C-terminal Avi- and His6-tags (mouse, UniProt Q61006 22-494, biotinylated in vitro using the BirA enzyme)
T5 construct: range 22-494; also called mouse ECD; not shown: Avi- and His6-tags
T5 sequence (looked up): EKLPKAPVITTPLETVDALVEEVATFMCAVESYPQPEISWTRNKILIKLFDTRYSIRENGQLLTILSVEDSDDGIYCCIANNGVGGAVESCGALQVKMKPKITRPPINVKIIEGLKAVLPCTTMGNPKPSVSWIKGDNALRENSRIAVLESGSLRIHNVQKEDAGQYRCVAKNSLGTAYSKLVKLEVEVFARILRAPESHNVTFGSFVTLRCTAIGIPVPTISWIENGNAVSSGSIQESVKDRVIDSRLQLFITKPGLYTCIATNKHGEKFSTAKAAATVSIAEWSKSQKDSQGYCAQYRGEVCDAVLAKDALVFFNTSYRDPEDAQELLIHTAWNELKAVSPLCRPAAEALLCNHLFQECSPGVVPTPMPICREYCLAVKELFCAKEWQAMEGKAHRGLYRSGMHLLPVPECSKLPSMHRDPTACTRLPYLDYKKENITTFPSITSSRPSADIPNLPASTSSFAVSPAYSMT

T6: hFz: Fz domain and C-terminal flanking sequence of human MuSK (K314-T495) with C-terminal Avi- and His6-tags (human, UniProt O15146 314-495, biotinylated in vitro using the BirA enzyme)
T6 construct: also called human Fz; not shown: Avi- and His6-tags
T6 sequence: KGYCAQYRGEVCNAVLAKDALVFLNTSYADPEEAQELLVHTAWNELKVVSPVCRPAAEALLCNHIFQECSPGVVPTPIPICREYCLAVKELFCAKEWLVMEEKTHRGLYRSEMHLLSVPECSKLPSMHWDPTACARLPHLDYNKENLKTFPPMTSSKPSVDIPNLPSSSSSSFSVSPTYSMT


Key:
human MuSK = target: T1, human MuSK; assay: Biacore T200, MuSK on chip (200RU), 22.2 nM Fab, dissociation pH 5.5
How it was run: (§1)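 Surface plasmon resonance was run with both human and mouse MuSK immobilized on the sensor chip. Fab association was always performed at pH 7.4 before the dissociation phase. Kinetic parameters were calculated from the binding curves.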

mouse MuSK = target: T2, mouse MuSK; assay: as above
How it was run: as §1

[1] = target: T3, mFz: Fz domain and C-terminal flanking …; assay: bead-binding assay, Fab format: biotinylated antigen on streptavidin beads, flow cytometry, 1:1 fit; average ± s.d., n=3
[2] = target: T4, hECD: full-length extracellular region …; assay: as above
[3] = target: T5, mECD: full-length extracellular region …; assay: as above
[4] = target: T6, hFz: Fz domain and C-terminal flanking …; assay: as above

Row | koff (human MuSK) [s⁻¹] | koff (mouse MuSK) [s⁻¹] | Kd [1] [nM] | Kd [2] [nM] | Kd [3] [nM] | Kd [4] [nM] | Binder
1 | 0.00034 | 0.00051 | 0.45 | 0.86 | 0.7 | 0.53 | X2 Fab (Fab, V domains shown, Fab format) VH: EVQLVESGGGLVQPGGSLRLSCAASGFTVSSSSIHWVRQAPGKGLEWVASISSSYGSTSYADSVKGRFTISADTSKNTAYLQMNSLRAEDTAVYYCARSEGDRYVSGYMGMDYWGQGTLVTVSS VL: DIQMTQSPSSLSASVGDRVTITCRASQSVSSAVAWYQQKPGKAPKLLIYSASSLYSGVPSRFSGSRSGTDFTLTISSLQPEDFATYYCQQSGVWLITFGQGTKVEIK
2 | 0.00225 | 0.0246 | 0.29 | 0.16 | 0.4 | 0.11 | X3 Fab (Fab, V domains shown, Fab format) VH: EVQLVESGGGLVQPGGSLRLSCAASGFTISSSSIHWVRQAPGKGLEWVASISSSSGYTYYADSVKGRFTISADTSKNTAYLQMNSLRAEDTAVYYCARSWYEMWMSGYFGFDYWGQGTLVTVSS VL: DIQMTQSPSSLSASVGDRVTITCRASQSVSSAVAWYQQKPGKAPKLLIYSASSLYSGVPSRFSGSRSGTDFTLTISSLQPEDFATYYCQQSSSSLITFGQGTKVEIK
